Several values for one entry are separate records, joined by “and”; a condition that tells them apart may be missing. Equal entries are not always repeated.
Assay: Pharmacokinetic study of intranasal tissue kallikrein (125I-KLK1 tissue concentrations by gamma counting)
Type: in vivo
Conditions: rat, 30 min. end point
Description: The purpose of this study was to quantify the amount of tissue kallikrein (KLK1) reaching the central nervous system and peripheral tissues after intranasal administration to anesthetized rats. At 30 min after KLK1 administration, animals were transcardially perfused with ice-cold saline followed by paraformaldehyde fixative and tissues were dissected. The amount of radiolabeled KLK1 in each tissue sample was quantified by gamma counting and tissue concentrations were calculated using tissue weight and gamma counting of standards of the dosing solutions
Adult male Sprague Dawley rats (n=10, mean 335.4 g±4.57 g SE) were used for this study. Animals were group housed in the Regions Hospital Animal Care Facility with free access to food and water. Animals were kept on a 12 h light cycle. All experimental procedures were approved by the Animal Care and Use Committee at Regions Hospital under IACUC protocol number 08-022.
Tissue kallikrein was sent to Perkin-Elmer for ^125I-labelling (Quote NEX-084, lot C1541583). Non-labeled KLK1 from Sigma (cat#K3627-1KU, lot 018K1441) was also used. Non-labeled KLK1 was dissolved in 1×PBS (10×PBS, Sigma, cat #P5493, lot 027K8405 diluted in sterile water). The average dose was 48.1 μL, 75 μCi, and 2.6 mg.
• a. Prior to anesthesia, each rat was weighed. • b. An anesthesia cocktail was prepared and full, half, and quarter anesthesia doses were calculated according to the animal's weight with a full dose containing 30 mg/kg ketamine, 6 mg/kg xylazine, and 1 mg/kg acepromazine. • c. A 1-cc syringe fitted with a 25 G or 27 G, ½ inch needle was assembled and a full dose was drawn into the syringe for injection. • d. Rats were restrained in a towel as follows. Rats were placed ventral side down in the middle of a hand towel. The towel was then wrapped around the head and shoulders to restrain. Wrapped animals remained ventral side down while the left hind leg was located. • e. The left hind leg was drawn to the side and the needle was inserted just beneath the skin (subcutaneous) above the thigh. After ensuring that the needle was placed subcutaneously (and not intramuscularly), full doses were injected. Rats were placed in holding cages and the injection time noted. Animals should be under within 5 min. • f. Anesthesia was monitored throughout the procedures by assessing reflexes using pinching of the hind paw or tail. If a reflex was present, a half or quarter dose booster was administered as necessary. • g. During drug administration, animals received a half dose booster roughly 20-25 min after initial dose. Intranasal Delivery of ^125I-KLK1 • a. Anesthetized rats were placed on their backs on a heating pad in a metal surgical tray. The heating pad was connected to a thermostat and was automatically regulated to maintain a 37° C. temperature based on continuous measurement from a rectal probe. • b. A 2″×2″ gauze pad was rolled tightly into a pillow, taped together, and under the neck to maintain a correct neck position horizontal with the counter. • c. A lead impregnated shield was placed between the surgical tray and the experimenter for protection against radiation. The dose solution, pipette, pipette tips, and waste receptacle were arranged behind the shield for easy access. • d. A 6 μL drop was loaded into the pipette behind the shield. • e. A cotton swab covered in parafilm was used to occlude one naris completely (the flat part of the swab was pushed gently against the naris to prevent airflow), while the 6 μL drop was expelled slowly from the pipette (held at a 45° angle from the rat's midline), forming a drop on the pipette tip. The drop was lowered onto the open naris to be inhaled. • f. After two minutes, the alternate naris was occluded and a 6 μL drop was administered in the same fashion. • g. A drop was administered as described above every two minutes to alternating nares until a total of 8 drops was delivered (4 to each naris) over 14 min. • h. […]

[1] = individual animal, listed as kallikrien

B1: tissue kallikrein: serine protease that cleaves kininogen into kallidin; polypeptide SEQ ID NO:1 (Sus scrofa kallikrein 1), KLK1 from Sigma (protein, listed as Sus scrofa)
chain: MWSLVMRLALSLAGTGAAPPIQSRIIGGRECEKDSHPWQVAIYHYSSFQCGGVLVDPKWVLTAAHCKNDNYQVWLGRHNLFENEVTAQFFGVTADFPHPGFNLSLLKNHTKADGKDYSHDLMLLRLQSPAKITDAVKVLELPTQEPELGSTCQASGWGSIEPGPDDFEFPDEIQCVELTLLQNTFCADAHPDKVTESMLCAGYLPGGKDTCMGDSGGPLICNGMWQGITSWGHTPCGSANKPSIYTKLIFYLDWINDTITENP
modifications: 125I label in one form
Avg, outliers removed
  concentration in Ventral Dura: 143.0 nM
[1]
  concentration in Amygdala: 13.5 nM and 10.9 nM and 14.16 nM and 18.3 nM and 12.1 nM and 25.4 nM and 15.2 nM and 13.9 nM and 24.6 nM and 13.7 nM
  concentration in Anterior Olfactory Nucleus: 23.1 nM and 15.1 nM and 24.0 nM and 20.5 nM and 19.3 nM and 44.8 nM and 29.2 nM and 25.2 nM and 45.6 nM and 21.2 nM
  concentration in Anterior Trigeminal Nerve: 233.5 nM and 75.1 nM and 83.9 nM and 83.5 nM and 108.3 nM and 68.8 nM and 111.7 nM and 139.2 nM and 77.5 nM
  concentration in Axillary Nodes (2): 44.6 nM and 38.9 nM and 58.8 nM and 44.4 nM and 43.9 nM and 48.8 nM and 28.6 nM and 33.5 nM and 47.7 nM and 34.0 nM
  concentration in Blood Sample: 292.4 nM and 272.4 nM and 327.7 nM and 288.9 nM and 275.6 nM and 231.1 nM and 233.0 nM and 251.9 nM and 242.4 nM and 268.4 nM
  concentration in Carotid Artery: 127.5 nM and 55.9 nM and 111.2 nM and 103.2 nM and 138.7 nM and 175.1 nM and 84.9 nM and 115.6 nM and 108.2 nM
  concentration in Cerebellum: 9.3 nM and 10.6 nM and 10.06 nM and 13.2 nM and 11.2 nM and 12.2 nM and 8.6 nM and 14.7 nM and 7.8 nM
  concentration in Cervical Nodes (2): 214.4 nM and 3.1 nM and 116.3 nM and 72.1 nM and 100.5 nM and 119.9 nM and 103.7 nM and 196.0 nM and 174.6 nM
  concentration in Circle of Willis & Basilar Artery: 190.7 nM and 56.9 nM and 44.4 nM and 133.6 nM and 87.4 nM and 178.2 nM and 115.5 nM and 44.1 nM and 134.1 nM and 48.3 nM
  concentration in Dorsal Dura: 116.0 nM and 92.5 nM and 118.2 nM and 156.9 nM and 116.8 nM and 131.0 nM and 132.9 nM and 242.5 nM and 89.5 nM
  concentration in Esophagus: 118.0 nM and 66.9 nM and 109.6 nM and 87.7 nM and 68.1 nM and 40.9 nM and 65.1 nM and 85.4 nM and 128.1 nM and 82.4 nM
  concentration in Extra Cortex: 10.3 nM and 11.3 nM and 12.40 nM and 13.3 nM and 13.8 nM and 17.2 nM and 12.8 nM and 16.6 nM and 9.8 nM
  concentration in Extra Slice #1: 17.1 nM and 16.2 nM and 19.4 nM and 16.6 nM and 16.9 nM and 43.2 nM and 31.1 nM and 29.6 nM and 22.7 nM
  concentration in Extra Slice #2: 9.2 nM and 11.0 nM and 12.33 nM and 17.0 nM and 11.7 nM and 28.5 nM and 17.6 nM and 17.3 nM and 27.0 nM and 15.6 nM
  concentration in Extra Slice #3: 8.8 nM and 9.6 nM and 11.43 nM and 10.7 nM and 9.9 nM and 23.3 nM and 17.2 nM and 13.6 nM and 21.0 nM and 13.8 nM
  concentration in Extra Slice #4: 7.5 nM and 8.6 nM and 9.4 nM and 9.9 nM and 18.4 nM and 14.7 nM and 10.5 nM and 17.0 nM and 11.8 nM
  concentration in Extra Slice #5: 7.7 nM and 7.6 nM and 10.7 nM and 9.2 nM and 10.8 nM and 19.2 nM and 18.6 nM and 9.7 nM and 14.8 nM and 9.9 nM
  concentration in Extra Slice #6: 7.9 nM and 8.1 nM and 12.1 nM and 10.5 nM and 12.2 nM and 16.7 nM and 10.4 nM and 14.8 nM and 9.5 nM
  concentration in Frontal Cortex: 12.0 nM and 16.1 nM and 15.8 nM and 16.9 nM and 17.4 nM and 45.7 nM and 27.7 nM and 26.8 nM and 38.9 nM and 22.0 nM
  concentration in Heart: 17.4 nM and 16.0 nM and 21.9 nM and 30.1 nM and 12.7 nM and 31.4 nM and 13.7 nM and 23.2 nM and 22.8 nM and 37.0 nM
  concentration in Hippocampus: 7.0 nM (2×) and 11.6 nM and 10.6 nM and 8.8 nM and 16.4 nM and 13.4 nM and 13.7 nM and 8.2 nM
  concentration in Hypothalamus: 17.1 nM and 11.9 nM and 21.1 nM and 15.8 nM and 17.4 nM and 37.6 nM and 28.8 nM and 15.7 nM and 38.9 nM and 17.3 nM
  concentration in Kidney (L, tip): 179.0 nM and 213.3 nM and 187.5 nM and 115.0 nM and 24.6 nM and 35.5 nM and 103.9 nM and 240.4 nM and 212.2 nM and 36.9 nM
  concentration in Liver (R, superficial lobe): 18.7 nM and 37.1 nM and 25.7 nM and 26.6 nM and 40.2 nM and 26.1 nM and 16.4 nM and 16.1 nM and 21.8 nM and 28.8 nM
  concentration in Lower Cervical Spinal Cord: 5.3 nM and 6.6 nM and 7.3 nM (2×) and 5.2 nM and 4.7 nM and 7.0 nM and 6.5 nM and 10.1 nM and 10.9 nM
  concentration in Lumbar Spinal Cord: 5.1 nM and 4.9 nM and 5.8 nM and 4.7 nM and 5.0 nM and 5.35 nM and 4.2 nM (2×) and 5.6 nM and 4.6 nM
